B1: SMG5 (parent)
chain: FVSIAQSEQESLLQQAQAQFRMAQ

Variants of: B1
Assay: protein stability index of a GFP-peptide fusion (GPS, HEK-293T) (PSI 1-6); higher = more stable
Conditions: c terminus: a fixed tail appended
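Also: lentivirally expressed fusions sorted by FACS into six bins by GFP to DsRed ratio, PSI derived from sequencing read proportions per bin multiplied by bin number.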

Protein stability index, by site and new letter:
A5: Y 1.91; I 1.78; G 1.66; F 2.56; S 1.76; M 2.58; L 2.23; E 2.64; C 1.82; R 2.57; P 1.88; D 3.41; N 1.86; H 2.21; V 1.42; K 2.3; Q 2.11; T 1.54
E8: M 1.57; G 1.86; T 1.84; Q 2.44; V 1.39; K 2.07; C 2.04; A 2.2; N 1.92; P 1.62; S 1.82; H 2.02; I 1.9; D 2.39; F 3.04; R 1.42; Y 1.4; L 2.19
F20: M 2.29; I 2.48; N 2.5; T 3.17; K 2.59; C 2.22; R 2.32; H 3.04; Q 2.5; A 2.44; D 3.06; P 2.75; E 3.12; L 2.08; S 2.57; G 3.13
L12: A 2.69; G 2.12; F 2.02; W 1.75; C 2.17; M 2.44; T 2.54; D 3.33; V 2.31; I 2.53; N 2.64; R 2.4; H 2.72; S 2.21; K 2.4; Q 2.66; Y 1.61; E 2.48; P 2.48
A16: L 1.73; R 2.53; F 2.47; E 2.43; W 1.94; K 1.68; T 2.69; S 1.94; Y 1.86; H 2.56; G 2.09; M 2.2; D 2.44; N 2.37; C 1.36; P 1.88; I 2.16; V 1.78; Q 2.55
S11: T 2.63; R 2.37; A 2.4; E 2.56; Q 2.23; H 2.04; G 1.2; K 2; W 1.79; P 2.6; M 1.97; C 2.56; L 1.99; D 2.46; V 1.59; Y 2.04; F 1.56; N 2.17; I 1.69
Q15: N 2.5; I 2.21; M 2.12; F 1.4; P 2.28; C 1.85; D 2.55; K 2.22; T 1.59; L 1.61; A 1.44; Y 2.17; R 2.44; E 2.32; S 2.27; W 2.55; H 2.24; V 2.34; G 2.55
I4: F 2.2; A 2.38; T 2.78; E 2.91; P 3.08; Y 2.12; L 1.86; V 2.29; W 2.8; D 3.09; M 2.61; H 1.9; S 1.87; C 1.83; G 2.42; Q 3.01; R 2.06; N 2.49; K 2.39
Q19: L 2.47; A 1.87; T 1.98; Y 1.08; D 2.27; G 2.08; I 2.33; V 2.13; N 1.97; H 1.66; K 1.96; R 3.17; F 1.35; M 2.09; E 2.82; P 1.81; C 1.93; S 1.81
E10: V 2.85; Y 1.89; I 1.73; R 2.2; D 2.19; C 2.07; W 2.89; F 2.2; L 2.14; K 1.87; M 1.43; A 1.89; S 1.61; G 1.6; N 2.03; Q 2.54; T 1.52; P 1.96; H 1.95
A18: K 2.79; L 2.14; I 2.54; P 1.98; W 1.94; G 1.89; R 2.54; C 1.98; Y 2.86; D 2.37; S 2.74; M 1.7; F 1.74; Q 2.04; V 1.52; H 2.19; T 2.3; N 3.02; E 2.48
Q6: E 2.93; S 2.25; L 1.79; T 1.84; I 2.02; Y 2.32; G 1.85; N 1.97; F 2.15; K 2.26; A 1.9; M 2.19; C 1.44; P 2.35; V 1.53; R 2.33; H 1.92; D 2.75
S3: I 1.61; G 2.13; R 2.31; E 2.61; H 1.74; A 1.99; Y 1.58; N 1.83; F 1.87; D 2.22; V 1.77; M 1.6; P 2.22; L 1.87; T 2.25; Q 2.62; C 1.66; W 2.89; K 2.28
Q9: P 1.63; V 1.91; W 1.67; E 2.25; A 1.56; Y 1.21; S 2.02; H 2.2; M 2.02; G 1.95; K 1.73; I 1.67; T 2.9; N 2.08; C 3.07; F 2.32; R 1.85; L 3.25; D 2.15
Q17: E 2.22; R 3.07; D 2.37; Y 1.8; K 2.33; N 2.33; V 2.03; G 2.17; T 1.73; I 2.02; S 2.48; F 1.85; L 2.04; P 3.35; M 2.13; H 1.91; W 1.39; A 1.95; C 1.76
S7: T 2.36; K 1.98; E 2.85; D 2.33; H 2.77; N 2.27; Y 1.57; Q 2.5; W 3.26; G 2.61; I 2.56; F 2.22; R 2.79; C 1.63; P 2; A 2.38; M 1.65; L 1.77
L13: D 3; S 2.74; Y 1.31; C 2.88; K 2.52; W 2.19; M 2.66; R 2.07; P 3.08; H 3.08; N 2.74; V 2.68; A 2.14; I 2.87; T 2.28; Q 2.6; E 2.13; F 1.5
Q14: L 2.4; M 2.18; W 2.52; K 2.79; H 2.4; A 2.11; E 2.88; V 1.64; S 2.54; C 1.79; R 2.21; G 2.77; N 2.59; Y 1.7; T 2.09; I 2.25; D 2.4; F 1.84; P 2.17
V2: Y 2.69
